One may read the Kd as a measure of binding affinity in units of concentration.

Results on one molecule are retold here after article PMC8844856, “Structural basis of cyclic oligoadenylate binding to the transcription factor Csa3 outlines cross talk between type III and type I CRISPR systems” (The Journal of Biological Chemistry, 2022).

Common to all, as to conditions: protein: recombinant; tags: N-terminal His6; chain copies: 2; cyclic; no ends
In one series the target is T1, Csa3Sso G96A (Saccharolobus solfataricus P2, UniProt Q97Y88 1-237, G96A).
T1 sequence: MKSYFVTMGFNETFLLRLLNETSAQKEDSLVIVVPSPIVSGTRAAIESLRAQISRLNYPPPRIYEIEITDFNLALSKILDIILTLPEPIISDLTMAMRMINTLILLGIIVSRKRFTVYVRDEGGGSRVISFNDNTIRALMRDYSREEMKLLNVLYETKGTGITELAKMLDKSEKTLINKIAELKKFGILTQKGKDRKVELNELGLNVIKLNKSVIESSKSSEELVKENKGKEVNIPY
The series can be described thus: MST; nonspecific signal at high cA4 only; MST buffer not given in the material; Cy5 EMSA: 50 nM probe, 0.5-25 uM protein, 5% acrylamide TBE, 4 C; agarose EMSA: 2% TBE, room temperature; crystals: 20 mM.

The target in another series is T2, Csa3Sso F14A (Saccharolobus solfataricus P2, UniProt Q97Y88 1-237, F14A).
T2 sequence: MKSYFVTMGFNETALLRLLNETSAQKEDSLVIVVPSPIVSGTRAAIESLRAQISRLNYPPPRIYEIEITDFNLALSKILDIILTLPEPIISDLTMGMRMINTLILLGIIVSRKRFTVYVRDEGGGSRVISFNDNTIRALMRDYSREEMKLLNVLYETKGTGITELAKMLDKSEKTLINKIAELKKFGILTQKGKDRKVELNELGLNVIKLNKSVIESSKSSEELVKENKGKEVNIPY
The series is described as above.

The next series concerns the target T3, Csa3Sso F10A (Saccharolobus solfataricus P2, UniProt Q97Y88 1-237, F10A).
T3 sequence: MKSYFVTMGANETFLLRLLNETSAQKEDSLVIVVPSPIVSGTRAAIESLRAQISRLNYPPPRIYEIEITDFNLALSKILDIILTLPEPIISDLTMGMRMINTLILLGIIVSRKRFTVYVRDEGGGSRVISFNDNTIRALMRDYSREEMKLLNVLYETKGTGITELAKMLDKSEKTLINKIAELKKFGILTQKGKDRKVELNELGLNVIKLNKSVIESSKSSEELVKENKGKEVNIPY
The series is described as above.

A further series has as its target T4, Csa3Sso R98A (Saccharolobus solfataricus P2, UniProt Q97Y88 1-237, R98A).
T4 sequence: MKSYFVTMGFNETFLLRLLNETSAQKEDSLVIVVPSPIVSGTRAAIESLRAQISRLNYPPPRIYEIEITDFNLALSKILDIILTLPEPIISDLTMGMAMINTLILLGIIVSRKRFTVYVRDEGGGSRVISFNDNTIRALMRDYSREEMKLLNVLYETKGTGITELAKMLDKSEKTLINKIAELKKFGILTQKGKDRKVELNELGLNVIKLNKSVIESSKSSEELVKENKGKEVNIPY
Described as above.

The next series addresses T5, Csa3Sso E122Q (Saccharolobus solfataricus P2, UniProt Q97Y88 1-237, E122Q).
T5 sequence: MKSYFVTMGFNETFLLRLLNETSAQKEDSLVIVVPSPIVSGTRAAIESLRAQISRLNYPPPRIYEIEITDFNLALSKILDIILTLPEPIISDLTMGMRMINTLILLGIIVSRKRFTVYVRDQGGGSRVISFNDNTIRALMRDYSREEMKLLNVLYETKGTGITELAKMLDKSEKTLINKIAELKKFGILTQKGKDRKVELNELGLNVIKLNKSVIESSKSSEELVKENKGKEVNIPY
The series can be described thus: MST; MST buffer not given in the material; Cy5 EMSA: 50 nM probe, 0.5-25 uM protein, 5% acrylamide TBE, 4 C; agarose EMSA: 2% TBE, room temperature; crystals: 20 mM. A general note: In EMSA bound probe runs differently from free probe, usually more slowly.

Another series deals with T6, Csa3Sso E122A (Saccharolobus solfataricus P2, UniProt Q97Y88 1-237, E122A).
T6 sequence: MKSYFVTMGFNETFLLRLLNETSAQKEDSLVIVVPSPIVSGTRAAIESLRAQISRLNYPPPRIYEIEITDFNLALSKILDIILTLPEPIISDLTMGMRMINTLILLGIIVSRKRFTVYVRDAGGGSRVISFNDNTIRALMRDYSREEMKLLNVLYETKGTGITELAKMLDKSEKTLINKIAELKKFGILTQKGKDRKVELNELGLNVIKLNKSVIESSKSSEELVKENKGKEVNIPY
The description is as above.

For AAAA (ssRNA, cyclic, 3'-5' linked tetra-adenylate (CHEBI:142457)) [cA4], the binding result in the series with Csa3Sso G96A, with Csa3Sso F14A, with Csa3Sso F10A and in the series with Csa3Sso R98A was “no binding” in each case. For the same molecule, the values for the Kd with Csa3Sso E122Q and with Csa3Sso E122A were 44.5 nM and 38.3 nM, respectively.
